From paper PMC10713552 (Communications Biology, 2023)
Residue numbers refer to the chain shown, from its start.

B1: 0304-IN3_T65G (antibody, V domains shown)
VH: QVQLQQWGPGLVNPSETLSLTCSVSGGSFATENYYWSWIRQHPGEGLEWIGNIYFSGNGYYNPSLNNRFTISFDTSKNHLSLKLPSVTAADTAVYYCARGTIYFDISGYRRVDPFHIWGQGTMVIVSS
VL: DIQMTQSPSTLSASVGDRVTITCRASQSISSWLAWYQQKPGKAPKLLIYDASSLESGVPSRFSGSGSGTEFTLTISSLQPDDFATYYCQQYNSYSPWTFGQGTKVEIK
notes: source: Expi293F, transfected
B2: 0321-LN3_T65E (antibody, V domains shown)
VH: B1 VH with G59E, I106L
VL: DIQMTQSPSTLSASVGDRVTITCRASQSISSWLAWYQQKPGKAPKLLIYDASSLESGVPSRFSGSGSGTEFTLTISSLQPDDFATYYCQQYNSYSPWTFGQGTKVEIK
notes: source: Expi293F, transfected
B3: 0357-N3_T65A (antibody, V domains shown)
VH: B1 VH with G59A, I106R
VL: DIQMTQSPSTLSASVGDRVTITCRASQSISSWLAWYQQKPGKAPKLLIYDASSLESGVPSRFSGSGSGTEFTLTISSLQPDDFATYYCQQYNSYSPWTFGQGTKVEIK
notes: source: Expi293F, transfected
B4: 0323-LN3_T65G (antibody, V domains shown)
VH: B1 VH with I106L
VL: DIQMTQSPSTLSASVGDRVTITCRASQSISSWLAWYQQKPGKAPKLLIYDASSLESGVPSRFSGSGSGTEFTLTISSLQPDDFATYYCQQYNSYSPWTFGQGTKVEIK
notes: source: Expi293F, transfected
B5: 0328-LN3_T65M (antibody, V domains shown)
VH: B1 VH with G59M, I106L
VL: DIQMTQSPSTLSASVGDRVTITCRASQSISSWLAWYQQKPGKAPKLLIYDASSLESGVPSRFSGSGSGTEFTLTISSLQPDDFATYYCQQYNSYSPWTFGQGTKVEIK
notes: source: Expi293F, transfected
B6: 0375-N3_T65Y (antibody, V domains shown)
VH: B1 VH with G59Y, I106R
VL: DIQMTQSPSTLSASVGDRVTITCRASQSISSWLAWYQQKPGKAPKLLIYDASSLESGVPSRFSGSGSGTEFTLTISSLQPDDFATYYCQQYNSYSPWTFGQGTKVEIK
notes: source: Expi293F, transfected
B7: 0393-YN3_T65W (antibody, V domains shown)
VH: B1 VH with G59W, I106Y
VL: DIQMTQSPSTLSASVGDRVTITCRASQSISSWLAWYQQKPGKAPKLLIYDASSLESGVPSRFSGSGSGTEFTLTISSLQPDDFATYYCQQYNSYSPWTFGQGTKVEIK
notes: source: Expi293F, transfected
B8: 0384-YN3_T65L (antibody, V domains shown)
VH: B1 VH with G59L, I106Y
VL: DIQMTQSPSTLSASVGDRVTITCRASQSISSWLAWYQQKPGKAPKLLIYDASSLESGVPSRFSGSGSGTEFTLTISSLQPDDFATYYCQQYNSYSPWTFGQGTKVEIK
notes: source: Expi293F, transfected
B9: 0325-LN3_T65I (antibody, V domains shown)
VH: B1 VH with G59I, I106L
VL: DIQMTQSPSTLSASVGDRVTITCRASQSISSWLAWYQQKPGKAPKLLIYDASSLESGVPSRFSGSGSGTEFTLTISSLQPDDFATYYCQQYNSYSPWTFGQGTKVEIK
notes: source: Expi293F, transfected
B10: 0320-LN3_T65D (antibody, V domains shown)
VH: B1 VH with G59D, I106L
VL: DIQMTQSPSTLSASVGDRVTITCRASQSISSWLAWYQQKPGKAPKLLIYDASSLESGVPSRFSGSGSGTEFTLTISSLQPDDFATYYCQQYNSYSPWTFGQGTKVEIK
notes: source: Expi293F, transfected
B11: 0366-N3_T65M (antibody, V domains shown)
VH: B1 VH with G59M, I106R
VL: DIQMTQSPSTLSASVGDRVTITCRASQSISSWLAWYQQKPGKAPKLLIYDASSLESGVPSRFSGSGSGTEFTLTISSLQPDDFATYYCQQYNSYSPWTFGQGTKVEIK
notes: source: Expi293F, transfected
B12: 0336-LN3_T65W (antibody, V domains shown)
VH: B1 VH with G59W, I106L
VL: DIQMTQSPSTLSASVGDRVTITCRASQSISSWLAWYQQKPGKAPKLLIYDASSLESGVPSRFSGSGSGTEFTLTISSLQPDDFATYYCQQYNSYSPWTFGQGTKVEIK
notes: source: Expi293F, transfected
B13: 0355-MN3_T65W (antibody, V domains shown)
VH: B1 VH with G59W, I106M
VL: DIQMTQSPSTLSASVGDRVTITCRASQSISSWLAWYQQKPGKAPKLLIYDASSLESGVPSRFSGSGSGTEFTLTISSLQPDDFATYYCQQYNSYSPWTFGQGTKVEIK
notes: source: Expi293F, transfected
B14: 0361-N3_T65G (antibody, V domains shown)
VH: B1 VH with I106R
VL: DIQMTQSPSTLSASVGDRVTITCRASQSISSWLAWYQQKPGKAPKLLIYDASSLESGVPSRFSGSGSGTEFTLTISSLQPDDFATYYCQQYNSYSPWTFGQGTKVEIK
notes: source: Expi293F, transfected
B15: 0343-MN3_T65H (antibody, V domains shown)
VH: B1 VH with G59H, I106M
VL: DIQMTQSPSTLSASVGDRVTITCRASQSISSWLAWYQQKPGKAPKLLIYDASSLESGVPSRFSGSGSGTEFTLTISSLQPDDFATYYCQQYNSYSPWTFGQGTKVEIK
notes: source: Expi293F, transfected
B16: 0339-MN3_T65D (antibody, V domains shown)
VH: B1 VH with G59D, I106M
VL: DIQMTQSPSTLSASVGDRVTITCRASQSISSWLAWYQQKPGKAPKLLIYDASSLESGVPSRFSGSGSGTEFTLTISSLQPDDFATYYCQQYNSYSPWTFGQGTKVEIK
notes: source: Expi293F, transfected
B17: 0322-LN3_T65F (antibody, V domains shown)
VH: B1 VH with G59F, I106L
VL: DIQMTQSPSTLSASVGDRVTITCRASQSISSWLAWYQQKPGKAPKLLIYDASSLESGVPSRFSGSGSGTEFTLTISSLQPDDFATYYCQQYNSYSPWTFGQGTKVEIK
notes: source: Expi293F, transfected
B18: 0368-N3_T65P (antibody, V domains shown)
VH: B1 VH with G59P, I106R
VL: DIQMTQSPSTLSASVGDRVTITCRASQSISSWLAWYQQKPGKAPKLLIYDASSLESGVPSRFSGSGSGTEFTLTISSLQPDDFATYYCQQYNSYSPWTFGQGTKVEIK
notes: source: Expi293F, transfected
B19: 0376-YN3_T65A (antibody, V domains shown)
VH: B1 VH with G59A, I106Y
VL: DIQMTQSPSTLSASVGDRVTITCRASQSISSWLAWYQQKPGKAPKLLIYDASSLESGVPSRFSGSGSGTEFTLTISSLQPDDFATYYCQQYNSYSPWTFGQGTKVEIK
notes: source: Expi293F, transfected

Biological target: D614G-Hexapro (WT) spike ectodomain (SARS-CoV-2 Wuhan-Hu-1 D614G, D614G)
Assay: BLI

Binder | Kd | koff | kon
B1 | 45.4 nM | 0.000221 s⁻¹ | 4880 M⁻¹ s⁻¹
B2 | 378 nM | 0.00157 s⁻¹ | 4150 M⁻¹ s⁻¹
B3 | 0.562 nM | 0.000124 s⁻¹ | 221000 M⁻¹ s⁻¹
B4 | 145 nM | 0.000932 s⁻¹ | 6420 M⁻¹ s⁻¹
B5 | 2.99 nM | 0.00124 s⁻¹ | 415000 M⁻¹ s⁻¹
B6 | – | – | 265 M⁻¹ s⁻¹
B7 | 189 nM | 0.000535 s⁻¹ | 2840 M⁻¹ s⁻¹
B8 | 4.26 nM | 0.000957 s⁻¹ | 225000 M⁻¹ s⁻¹
B9 | 6.57 nM | 0.00131 s⁻¹ | 199000 M⁻¹ s⁻¹
B10 | 226 nM | 0.000716 s⁻¹ | 3160 M⁻¹ s⁻¹
B11 | 8.15 nM | 2.08e-06 s⁻¹ | 255 M⁻¹ s⁻¹
B12 | 0.15 nM | 0.000117 s⁻¹ | 782000 M⁻¹ s⁻¹
B13 | 0.474 nM | 0.00041 s⁻¹ | 865000 M⁻¹ s⁻¹
B14 | 549 nM | 0.000177 s⁻¹ | 323 M⁻¹ s⁻¹
B15 | 7760 nM | 0.000643 s⁻¹ | 82.8 M⁻¹ s⁻¹
B16 | 5.95 nM | 2e-05 s⁻¹ | 3350 M⁻¹ s⁻¹
B17 | 2.52 nM | 0.000726 s⁻¹ | 288000 M⁻¹ s⁻¹
B18 | 52.9 nM | 0.000253 s⁻¹ | 4790 M⁻¹ s⁻¹
B19 | 1.82 nM | 0.000425 s⁻¹ | 233000 M⁻¹ s⁻¹
